Biological target: HPV-16 L1 capsid protein lacking the first twenty-nine N-terminal amino acids after the start codon (Human papillomavirus type 16) (UniProt P03101)
Assay: SEC + other: negative-stain TEM; purified L1 in phosphate buffer pH 7.5 with the reducing agent DTT (20 mM); aggregates disassembled into soluble pentamers

HPV-16 L1 capsid protein lacking the first twenty-nine N-terminal amino acids after the start codon (from UniProt P03101 1-505) (natural protein)
stoichiometry N: 5

Source: PMC12464271
